Reference: US20170267750A1, “Method of Treating Ovarian and Renal Cancer Using Antibodies Against T Cell Immunoglobulin Domain and Mucin Domain 1 (TIM-1) Antigen” (Celldex Therapeutics, Inc., priority 2005, published 2017)
Marks after values point to notes of the source that are not given here.

Columns and labels:
[1] = molecular target: T1, TIM-1 protein on human CD4+ Th2 cells (Homo sapiens, UniProt Q96D42); assay: FACS analysis of expression of TIM-1 protein on human CD4+ Th2 cells; type: binding
T1 construct: a major fraction of polarized human Th2 and Th1 cells do express TIM-1; endogenous in cells; host or cells: primary human CD4+ T cells from blood
T1 sequence (Q96D42 21-364): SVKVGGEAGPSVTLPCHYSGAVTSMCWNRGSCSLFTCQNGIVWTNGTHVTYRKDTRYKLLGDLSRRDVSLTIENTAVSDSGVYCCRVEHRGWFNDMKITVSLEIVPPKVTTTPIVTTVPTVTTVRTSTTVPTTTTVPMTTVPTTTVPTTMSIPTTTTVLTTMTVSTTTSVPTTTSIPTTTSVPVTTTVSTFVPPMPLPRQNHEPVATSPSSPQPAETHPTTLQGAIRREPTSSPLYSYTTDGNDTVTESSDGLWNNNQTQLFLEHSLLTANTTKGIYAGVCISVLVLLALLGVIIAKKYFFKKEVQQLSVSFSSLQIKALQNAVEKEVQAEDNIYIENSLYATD
Experimental: Mononuclear cells were isolated from human blood diluted 1:1 in PBS, by spinning over Ficoll for 20 minutes. The mononuclear cells were washed twice at 1000 rpm with PBS-Mg and Ca and re-suspended in Miltenyi buffer (Miltenyi Biotec Inc., Auburn, Calif.); PBS, 0.5% BSA, 5 mM EDTA at approximately 10^8 cells/mL. 20 μL of CD4 Miltenyi beads were added per 107 cells and incubated for 15 minutes on ice. Cells were washed with a 10-fold excess volume of Miltenyi buffer. A positive selection column (type VS+) (Miltenyi Biotec Inc., Auburn, Calif.) was washed with 3 mL of Miltenyi buffer. The pelleted cells were re-suspended at 10^8 cells per mL of Miltenyi buffer and applied to the washed VS column. The column was then washed three times with 3 mL of Miltenyi buffer. Following this, the VS column was removed from the magnetic field and CD4+ cells were eluted from the column with 5 mL of Miltenyi buffer. […]
FACS analysis was performed to determine the expression of TIM-1 protein as detected with five anti-TIM-1 monoclonal antibodies (2.59.2, 1.29, 2.70.2, 2.56.2, 2.45.1) on human and mouse resting CD4+ T cells, as well as human activated and human polarized CD4+ T cells.
Data is reported as the geometric mean of the fluorescence intensity.

BT549 cells = assay: FACS analysis on antigen negative BT549 breast cancer cells (control); type: binding, human; settings: normalized to isotype control (pK16)
TIM-1 antigen = molecular target: T2, TIM-1 antigen (Homo sapiens, UniProt Q96D42, DEL158-162/L179P); assay: Epitope binning (antigen binding competition, Luminex)
T2 construct: V5; His; made in house; host or cells: baculovirus expression system (pMelV5His vector / pBlueBac)
T2 sequence (Q96D42 with tags, fused parts or gaps DEL158-162/L179P): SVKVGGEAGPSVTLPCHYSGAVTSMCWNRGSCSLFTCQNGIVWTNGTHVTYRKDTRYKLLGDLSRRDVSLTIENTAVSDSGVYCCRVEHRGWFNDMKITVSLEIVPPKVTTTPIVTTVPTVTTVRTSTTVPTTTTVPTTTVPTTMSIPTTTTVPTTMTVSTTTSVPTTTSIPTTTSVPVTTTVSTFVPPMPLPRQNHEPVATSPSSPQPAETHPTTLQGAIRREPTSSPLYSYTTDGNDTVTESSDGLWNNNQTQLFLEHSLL
Experimental: Certain antibodies, described herein were “binned” in accordance with the protocol described in U.S. Patent Application Publication No. 20030157730, published on Aug. 21, 2003, entitled “Antibody Categorization Based on Binding Characteristics.”
MxhIgG conjugated beads were prepared for coupling to primary antibody. The volume of supernatant needed was calculated using the following formula: (n+10)×50 μL (where n=total number of samples on plate). Where the concentration was known, 0.5 μg/mL was used. Bead stock was gently vortexed, then diluted in supernatant to a concentration of 2500 of each bead per well or 0.5×10^5/mL and incubated on a shaker in the dark at room temperature overnight, or 2 hours if at a known concentration of 0.5 μg/mL. Following aspiration, 50 μL of each bead was added to each well of a filter plate, then washed once by adding 100 μL/well wash buffer and aspirating. Antigen and controls were added to the filter plate 50 μL/well then covered and allowed to incubate in the dark for 1 hour on shaker. Following a wash step, a secondary unknown antibody was added at 50 μL/well using the same dilution (or concentration if known) as used for the primary antibody. The plates were then incubated in the dark for 2 hours at room temperature on shaker followed by a wash step. Next, 50 μL/well biotinylated mxhIgG diluted 1:500 was added and allowed to incubate in the dark for 1 hour on shaker at room temperature. Following a wash step, 50 μL/well Streptavidin-PE was added at 1:1000 and allowed to incubate in the dark for 15 minutes on shaker at room temperature. Following a wash step, each well was resuspended in 80 μL blocking buffer and read using a Luminex system.

Th2 cells = assay: Cytokine assay (ELISA of culture supernatants), CD4+ Th2 cells; type: cell-based, human; settings: for IL-5 production, percent of cytokine production detected using the control PK16.3 mAb / IL-10 production, percent of cytokine production detected using the control PK16.3 mAb / IL-13 production, percent of cytokine production detected using the control PK16.3 mAb / IL-4 production, percent of cytokine production detected using the control PK16.3 mAb: Th2
Experimental: (§1) IL-4, IL-5, IL-10, IL-13, and IFNγ production levels by activated Th1 and Th2 cell were measured in culture supernatants treated with anti-TIM-1 antibodies using standard ELISA protocols. Cytokine production by Th1 or Th2 cells treated with anti-TIM-1 antibodies was compared to Th1 or Th2 cells treated with the control PK16.3 antibody. In addition, the following samples were run in parallel as internal controls: i) anti-CD3 treated Th1 or Th2 cells, where no cytokine production is expected because of the absence of co-stimulation, ii) anti-CD3/anti-CD28 stimulated Th1 or Th2 cells, expected to show detectable cytokine production, and iii) untreated Th1 or Th2 cells. CD4+ T cells were isolated as described in the Example above. Isolated CD4+ lymphocytes were then spun down and re-suspended in DMEM 5% FCS plus additives (non-essential amino acids, sodium pyruvate, mercaptoethanol, glutamine, penicillin, and streptomycin) at 10^6 cells/mL. Falcon 6-well non-tissue culture treated plates were pre-coated overnight with anti-CD3 (2 μg/mL) and anti-CD28 (10 μg/mL) (600 μL total in Dulbecco's PBS) overnight at 4° C. The plates were washed with PBS and CD4+ lymphocytes were suspended at 500,000 cells/mL in Th2 medium: DMEM+10% FCS plus supplements and IL-2 5 ng/mL, IL-4 5 ng/mL, anti-IFN gamma 5 μg/mL and cells were stimulated 4-6 days at 37° C. and 5% CO2 in the presence of 5 μg/mL of mAb recognizing the TIM-1 protein or isotype matched negative control mAb PK16.3.
(§2) In another set of experiments, CD4+ lymphocytes were suspended at 500,000 cells/mL in Th1 medium: DMEM+10% FCS plus supplements and IL-2 5 ng/mL, IL12 5 ng/mL, anti-IL-4 5 μg/mL and stimulated 4-6 days 37° C. temp and 5% CO2 in the presence of 5 μg/mL TIM-1 or isotype matched control mAb PK16.3. Cells were washed two times in DMEM and resuspended in DMEM, 10% FCS plus supplements and 2 ng/mL IL-2 (500,000 cells/mL) in the presence of 5 μg/mL TIM-1 mAb or control PK16.3 mAb and cultured (rested) for 4-6 days at 37° C. and 5% CO2. The process of activation and resting was repeated at least once more as described above with the addition of anti-CD95L (anti-FAS ligand) to prevent FAS-mediated apoptosis of cells. Falcon 96-well non-tissue culture treated plates pre-coated overnight with anti-CD3 mAb at 500 ng/mL and costimulatory molecule B7H2 (B7 homolog 2) 5 μg/mL were washed and 100 μL of TIM-1 mAb treated Th1 or Th2 (200,000 cells) added per well. After 3 days of culture, the supernatants were removed and IL-4, IL-5, IL-10, IL-13, and IFNγ […]levels were determined by ELISA (Pharmingen, San Diego, Calif. or R&D Systems, Minneapolis, Minn.).
Each experiment used purified CD4+ cells isolated from whole blood samples from two independent donors. Cytokine production is reported as the percent of cytokine production detected using the control PK16.3 mAb. The anti-TIM-1 mAb used in each experiment is specified along the bottom row.

Th1 cells = assay: Cytokine assay (ELISA of culture supernatants), CD4+ Th1 cells; type: cell-based, human; settings: 5 μg/mL mAb
Experimental: as §1, §2

[2] = 5 μg/mL mAb, compared to control PK16.3 mAb
[3] = TH2, Donor 12 + 17, control PK16.3 mAb, 5 μg/mL mAb
[4] = TH1, Donor 12 + 17, control PK16.3 mAb

B1: mAb 1.29: fully human IgG2 kappa anti-TIM-1 monoclonal antibody; heavy chain SEQ ID NO: 2, light chain SEQ ID NO: 4 (antibody, listed as Homo Sapiens, V domains shown)
VH: QVQLQESGPGLVKPSETLSLTCTVSGGSVSSGGYYWSWIRQPPGKGLEWIGFIYYTGSTNYNPSLKSRVSISVDTSKNQFSLKLSSVTAADAAVYYCARDYDWSFHFDYWGQGTLVTVSSA
VL: DIQMTQSPSSLSASIGDRVTITCRASQGIRNDLGWYQQKPGKAPKRLIYAASSLQSGVPSRFSGSGSGTEFTLTISSLQPEDFATYYCLQHNSYPLTFGGGTKVEIKR
Geometric mean of fluorescence intensity ([1]; Polarized Human CD4+ Th2 Cells): 22.3 | Geometric mean of fluorescence intensity ([1]; Resting Human CD4+ T cells): 4.7 | Geo Mean Ratio (relative to negative control) BT549 (BT549 cells): 1.2 | BIN (TIM-1 antigen; Table 8): 1 | Bin (TIM-1 antigen; Table 9): 1 | IL-5 release from Th2 cells (Th2 cells; [2]): significantly inhibited | IL-10 release from Th2 cells (Th2 cells; [2]): significantly inhibited | IL-13 release from Th2 cells (Th2 cells; [2]): significantly inhibited | IL-4 Percentage of Control Antibody (Th2 cells; [3]): 112.54 Percentage of Control Antibody | IL-5 Percentage of Control Antibody (Th2 cells; [3]): 80.26 Percentage of Control Antibody | IL-10 Percentage of Control Antibody (Th2 cells; [3]): 44.45 * Percentage of Control Antibody | IL-13 Percentage of Control Antibody (Th2 cells; [3]): 48.91 ** Percentage of Control Antibody | INF γ Percentage of Control Antibody (Th2 cells; [3]): 112.54 Percentage of Control Antibody | IL-5 production, percent of cytokine production detected using the control PK16.3 mAb (Th2 cells; Donor ID 12): 2% | IL-10 production, percent of cytokine production detected using the control PK16.3 mAb (Th2 cells; Donor ID 12): 109% | IL-13 production, percent of cytokine production detected using the control PK16.3 mAb (Th2 cells; Donor ID 12): 91% | IL-4 production, percent of cytokine production detected using the control PK16.3 mAb (Th2 cells; Donor ID 12 + 14): 626% | IL-5 production, percent of cytokine production detected using the control PK16.3 mAb (Th2 cells; Donor ID 12 + 14): 5% | IL-10 production, percent of cytokine production detected using the control PK16.3 mAb (Th2 cells; Donor ID 12 + 14): 83% | IL-4 production, percent of cytokine production detected using the control PK16.3 mAb (Th2 cells; Donor ID 13 + 14): 130% | IL-5 production, percent of cytokine production detected using the control PK16.3 mAb (Th2 cells; Donor ID 13 + 14): 122% | IL-10 production, percent of cytokine production detected using the control PK16.3 mAb (Th2 cells; Donor ID 13 + 14): 19% | IL-13 production, percent of cytokine production detected using the control PK16.3 mAb (Th2 cells; Donor ID 13 + 14): 17% | IL-5 production, percent of cytokine production detected using the control PK16.3 mAb (Th2 cells; Donor ID 14): 67% | IL-10 production, percent of cytokine production detected using the control PK16.3 mAb (Th2 cells; Donor ID 14): 45% | IL-13 production, percent of cytokine production detected using the control PK16.3 mAb (Th2 cells; Donor ID 14): 100% | block of Th2 cytokines across donor groups (Th2 cells; multiple experiments with different donors): reproducibly block one or more of the Th2 cytokines | IL-10 release from Th1 cells (Th1 cells; compared to control PK16.3 mAb): significantly inhibited | IL-13 release from Th1 cells (Th1 cells; compared to control PK16.3 mAb): significantly inhibited | IL-4 Percentage of Control Antibody (Th1 cells; [4]): 81.05 Percentage of Control Antibody | IL-5 Percentage of Control Antibody (Th1 cells; [4]): 94.63 Percentage of Control Antibody | IL-10 Percentage of Control Antibody (Th1 cells; [4]): 60.77 ** Percentage of Control Antibody | IL-13 Percentage of Control Antibody (Th1 cells; [4]): 73.95 *** Percentage of Control Antibody | INF γ Percentage of Control Antibody (Th1 cells; [4]): 93.51 Percentage of Control Antibody
